# From US11473073B2, “Aminopeptidases for protein hydrolyzates” (DUPONT NUTRITION BIOSCIENCES APS, priority 2015, dated 2022)
# B1: Aspergillus oryzae PepN 2: Aspergillus oryzae PepN 2 described by A. M. Blinkovsky et al., Biochimica et Biophysica Acta 1480 (2000) 171-181 (protein)
# chain: RALVSPDEFPEDIQLEDLLEGSQQLEDFAYAYPERNRVFGGKAHDDTVNYLYEELKKTGYYDVYKQPQVHLWSNADQTLKVGDEEIEAKTMTYSPSVEVTADVAVVKNLGCSEADYPSDVEGKVALIKRGECPFGDKSVLAAKAKAAASIVYNNVAGSMAGTLGAAQSDKGPYSAIVGISLEDGQKLIKLAEAGSVSVDLWVDSKQENRTTYNVVAQTKGGDPNNVVALGGHTDSVEAGPGINDDGSGIISNLVIAKALTQYSVKNAVRFLFWTAEEFGLLGSNYYVSHLNATELNKIRLYLNFDMIASPNYALMIYDGDGSAFNQSGPAGSAQIEKLFEDYYDSIDLPHIPTQFDGRSDYEAFILNGIPSGGLFTGAEGIMSEENASRWGGQAGVAYDANYHAAGDNMTNLNHEAFLINSKATAFAVATYANDLSSIPKRNTTSSLHRRARTMRPFGKRAPKTHAHVSGSGCWHSQVEA
# Columns and labels:
# [1] = test system: peptide WHWLQLKPGQPMY (SEQ ID NO:26); assay: Hydrolysis of proline containing peptide, LC-MS; assay type: biochemical; conditions: peptide 1 mg/mL, aminopeptidase 1 ug/mL, CPB-Buffer, 55° C.; FIG. 5-7
# Method: The peptide […] (SEQ ID NO:26) was hydrolysed with TRI03 and TRI035. The peptide (1 mg/mL) was incubated with 1 ug/mL of the aminopeptidase in 20 mM CPB-Buffer (20 mM Citric acid, 20 mM Phosphate. 20 mM Boric acid) at 55° C. Aliquots (50 μL) were stopped with 50 rel 5% TFA at the indicated time points and subjected to LC-MS analysis.
# Capillary LC-MS/MS analyses were performed using an Agilent 1100 LC system (Agilent Technologies) interfaced to a LTQ Orbitrap Classic hybrid mass spectrometer (Thermo Scientific, Bremen, Germany). Samples were loaded onto a 15 cm Phenomenix Jupiter 4μ Proteo 90A, C4 analytical column. Separation was performed at a flow rate of 16 μL/min using a 10 min gradient of 0-40% Solvent B H2O/CH3CN/HCOOH (50/950/0.65 v/v/v) into the IONMAX® ion source (Thermo Scientific, San Jose). The LTQ Orbitrap Classic instrument was operated in a data-dependent MS/MS mode. The peptide masses were measured by the Orbitrap (MS scans were obtained with a resolution of 60 000 at m/z 400), and up to 2 of the most intense peptide m/z were selected and subjected to fragmentation using CID in the linear ion trap (LTQ). Dynamic exclusion was enabled with a list size of 500 masses, duration of 40 s, and an exclusion mass width of ±10 ppm relative to masses on the list.
# The RAW files were accessed with the program Skyline 2.6.0.7176 (MacLean, B., et al., “Skyline: an open source document editor for creating and analyzing targeted proteomics experiments”, Bioinformatics, 2010, 26(7): p. 966-8) which uses the MS1 intensities to build chromatograms (Schilling, B., et al., “Platform-independent and label-free quantitation of proteomic data using MS1 extracted ion chromatograms in skyline: application to protein acetylation and phosphorylation”, Mol Cell Proteomics, 2012. 11(5): p. 202-14). The precursor isotopic import filter was set to a count of three, (M, M+1, and M+2) at a resolution of 60,000 and the most intense charge state was used. Peptide sequences of the substrate as well as cleavage products were typed into Skyline and intensities were calculated in each sample. […]
# [2] = test system: peptide WHWLQLKPGQPMY (SEQ ID NO:26); conditions: as described by Blinkovsky et al., Biochimica et Biophysica Acta 1480 (2000) 171-181; cited from earlier work
molecule,measurement,setting,value
B1,hydrolysis of WHWLQLKPGQPMY to KPGQPMY and further down to QPMY,[1],cleaves the peptide down to QPMY
same,hydrolysis of X-Pro bonds including those of WHWLQLKPGQPMY,[2],does not hydrolyze
